From article PMC11066036, “HPK1 citron homology domain regulates phosphorylation of SLP76 and modulates kinase domain interaction dynamics” (Nature Communications, 2024)
Substitutions are numbered along the chain they refer to. Numbers in names are those of the source.

T1: HPK1 intact citron homology domain fragment with C-terminal Flag (Flag-CHD) (UniProt Q92918-2 428-821)
T1 construct: HPK1 (MAP4K1), intact CHD fragment from thrombin digestion of the full-length protein; the cut is told as after R427 (C428-E821) for the untagged construct; the protein is printed as M1-E821 (821 residues); the Flag form was made by the same digestion; also called intact CHD with C-flag; recombinant Flag-CHD; source: sf9, purified; thrombin digest of full-length HPK1 with C-terminal Flag (Ni, …)
T1 sequence (looked up): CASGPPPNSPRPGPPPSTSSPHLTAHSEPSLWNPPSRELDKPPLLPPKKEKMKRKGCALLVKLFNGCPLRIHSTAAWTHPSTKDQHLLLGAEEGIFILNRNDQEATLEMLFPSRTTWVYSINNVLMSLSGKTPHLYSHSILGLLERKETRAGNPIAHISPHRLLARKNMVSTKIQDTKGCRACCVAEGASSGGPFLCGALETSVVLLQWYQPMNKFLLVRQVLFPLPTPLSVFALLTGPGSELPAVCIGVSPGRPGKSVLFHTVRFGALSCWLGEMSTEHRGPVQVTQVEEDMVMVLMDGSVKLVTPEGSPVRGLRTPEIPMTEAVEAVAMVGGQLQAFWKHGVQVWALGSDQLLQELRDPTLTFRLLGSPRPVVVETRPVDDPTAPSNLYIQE

T2: HPK1 ΔCHD with LgBit tag (UniProt Q92918 1-483)
T2 construct: HPK1 (MAP4K1) without the CHD, M1-G483; limits as printed for the pMSCV construct of the same name; also called KD + 4PRs; source: HPK1-/- Jurkat cells, transiently transfected, in live cells
T2 sequence (looked up): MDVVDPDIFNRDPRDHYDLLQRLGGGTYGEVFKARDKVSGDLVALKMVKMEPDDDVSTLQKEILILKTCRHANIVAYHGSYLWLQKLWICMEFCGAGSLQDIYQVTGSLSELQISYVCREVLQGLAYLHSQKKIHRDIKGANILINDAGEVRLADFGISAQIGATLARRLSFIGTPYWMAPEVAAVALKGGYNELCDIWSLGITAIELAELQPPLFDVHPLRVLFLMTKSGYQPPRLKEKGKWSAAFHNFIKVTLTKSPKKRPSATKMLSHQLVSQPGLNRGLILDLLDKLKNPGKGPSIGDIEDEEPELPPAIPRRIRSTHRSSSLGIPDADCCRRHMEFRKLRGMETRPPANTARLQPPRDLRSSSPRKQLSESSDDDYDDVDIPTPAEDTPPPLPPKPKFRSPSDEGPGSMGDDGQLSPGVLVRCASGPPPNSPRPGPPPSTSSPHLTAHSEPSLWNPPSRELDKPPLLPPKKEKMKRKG

B1: HPK1 kinase domain S171A (KD SA) (domain or fragment, UniProt Q92918 2-293, looked up)
chain: DVVDPDIFNRDPRDHYDLLQRLGGGTYGEVFKARDKVSGDLVALKMVKMEPDDDVSTLQKEILILKTCRHANIVAYHGSYLWLQKLWICMEFCGAGSLQDIYQVTGSLSELQISYVCREVLQGLAYLHSQKKIHRDIKGANILINDAGEVRLADFGISAQIGATLARRLAFIGTPYWMAPEVAAVALKGGYNELCDIWSLGITAIELAELQPPLFDVHPLRVLFLMTKSGYQPPRLKEKGKWSAAFHNFIKVTLTKSPKKRPSATKMLSHQLVSQPGLNRGLILDLLDKLKN
notes: source: recombinant, purified
B2: HPK1 kinase domain T165E/S171E (KD TSEE WT) (domain or fragment, UniProt Q92918 2-293, looked up)
chain: B1 chain with T164E, A170E
notes: HPK1 (MAP4K1) kinase domain, residues D2-N293, with the phosphomimetic mutations T165E/S171E; also called WT KD; active TSEE form; source: recombinant, purified
B3: HPK1 kinase domain T165E/S171E/L221K (KD TSEE L221K) (domain or fragment, UniProt Q92918 2-293, looked up)
chain: B1 chain with T164E, A170E, L220K
notes: HPK1 (MAP4K1) kinase domain, residues D2-N293, TSEE backbone with L221K; source: recombinant, purified
B4: HPK1 intact citron homology domain fragment (C428-E821), untagged (domain or fragment, UniProt Q92918-2 428-821, looked up)
chain: T1 sequence (looked up)
notes: HPK1 (MAP4K1), fragment left after thrombin cut after R427: two PR domains and the intact CHD, residues C428-E821; the protein is printed as M1-E821 (821 residues); Cut out of a full-length construct (T165E, S171E, R319A, thrombin site inserted after V384); none of these changes lies in the fragment; also called WT-CHD; CHD WT; source: sf9, purified; thrombin digest of full-length HPK1 (Ni, …)
B5: SLP76 with SmBit tag (natural protein, UniProt Q13094 1-533, looked up)
chain: MALRNVPFRSEVLGWDPDSLADYFKKLNYKDCEKAVKKYHIDGARFLNLTENDIQKFPKLRVPILSKLSQEINKNEERRSIFTRKPQVPRFPEETESHEEDNGGWSSFEEDDYESPNDDQDGEDDGDYESPNEEEEAPVEDDADYEPPPSNDEEALQNSILPAKPFPNSNSMYIDRPPSGKTPQQPPVPPQRPMAALPPPPAGRNHSPLPPPQTNHEEPSRSRNHKTAKLPAPSIDRSTKPPLDRSLAPFDREPFTLGKKPPFSDKPSIPAGRSLGEHLPKIQKPPLPPTTERHERSSPLPGKKPPVPKHGWGPDRRENDEDDVHQRPLPQPALLPMSSNTFPSRSTKPSPMNPLPSSHMPGAFSESNSSFPQSASLPPYFSQGPSNRPPIRAEGRNFPLPLPNKPRPPSPAEEENSLNEEWYVSYITRPEAEAALRKINQDGTFLVRDSSKKTTTNPYVLMVLYKDKVYNIQIRYQKESQVYLLGTGLRGKEDFLSVSDIIDYFRKMPLLLIDGKNRGSRYQCTLTHAAGYP
notes: SLP76 (SH2 domain-containing leukocyte protein of 76 kD); also called SH2 domain-containing leukocyte protein of 76 kD; source: HPK1-/- Jurkat cells, transiently transfected, in live cells

How the values were obtained:
[1] = molecular target: B4; assay: SPR; Biacore T200; KD variants captured (56-73 RU) by a biotinylated anti-KD Fab on NeutrAvidin chip; WT-CHD injected as analyte at various concentrations; 20 mM HEPES, 300 mM NaCl, 0.1% polysorbate 20, 0.5 mM TCEP, pH 7.4; 25 °C; conditions: both partners purified
[2] = molecular target: T1, HPK1 intact citron homology domain …; assay: AlphaScreen or HTRF; TR-FRET saturation binding; KD at 5 µM constant, Flag-CHD 1.53 nM-6.25 µM; anti-KD biotinylated Fab with streptavidin-Lumi4Tb and anti-Flag-d2; 20 mM HEPES, 300 mM NaCl, 0.1% polysorbate 20, 0.5 mM TCEP, pH 7.4; apparent KD, called overestimated by the paper; conditions: both partners purified
[3] = molecular target: full-length HPK1 (M1-E821, T165E, S171E, R319A, Y381E) with N-terminal His tag and C-terminal Flag (UniProt Q92918-2 1-821, T165E | S171E | R319A | Y381E, Isoform 2 (821 aa): C-terminus taken from 8EEC (entity position = residue - 478). N-terminal His and C-terminal Flag left out. A thrombin site after V384 may be present, but its sequence and its prese); assay: AlphaScreen or HTRF; TR-FRET competition; 5 nM full-length HPK1 with C-terminal Flag labelled with anti-KD Fab-streptavidin-Lumi4Tb and anti-Flag-d2; untagged CHD titrated (23.84-97.65 µM as printed) against the KD-CHD interaction within the full-length protein; One site - Fit Ki; conditions: both partners purified
HPK1 ΔCHD with LgBit tag = molecular target: T2, HPK1 ΔCHD with LgBit tag; assay: split reporter (BiFC, NanoBiT); NanoBit in live HPK1-/- Jurkat cells transiently transfected with SmBit-tagged SLP76 and LgBit-tagged HPK1 forms; luminescence over time, with or without TCR stimulation (anti-CD3 and anti-IgG); conditions: partners not purified

B1
binding result [1]: binds

B2
Kd [2]: 62.8 nM

B3
Kd [2]: 37.9 nM

B4
Ki [3]: 5990 nM

B5
level of interaction at baseline relative to full-length wild-type (HPK1 ΔCHD with LgBit tag): ~0.33 fold of full-length wild-type
